# Where a chain is given by its changes, count along the chain named.
# B1: CA9: anti-tau clone, SEQ ID NO: 371 (protein)
# scFv: QVQLQESGPSLVKPSQTLSLTCTVSGFSLTSNSVGWVRQAPGKAPEWVAGIDTDGEEGYNPALNSRLSITRDTSKSQVSLSLSSVTSEDTAVYYCGRSYRSDGLAYGYVQAIDYWGPGLLVTVSSEGKSSGASGESKVDDQAVLTQPASVSGSLGQRVSITCSGSFIGISSVGWFQQLPGSGLRTIIVASDGRPSGVPDRFSMSKSGNTATLTISSLQAEDEADYFCGSSDRTQYTGVFGSGTRLTVLG
# modifications: CA9 amino acid sequence
# B2: S1E12: anti-tau clone, SEQ ID NO: 218 (protein)
# scFv: B1 scFv with T30G, S101A, Q141R, A142V, L144R, A148S
# modifications: S1E12 amino acid sequence
# B3: CA9 scAb (protein)
# scFv: B1 scFv
# modifications: left off: small tags and cut ends
# B4: CA12: anti-tau clone, SEQ ID NO: 372 (protein)
# scFv: QVQLQGSGPSLVKPSQTLSLTCTVSGFSFDSYYVGWVRQAPGKALEWLGNIYSTGRAFYNPALKSRLSITRDTSKSQVSLSVSSVTIEDTALYYCVRGSYYHGGGNGMVDFFDYWSPGLLVTVSSEGKSSGASGESKVDDQVVRTQPSSVSGSLGQRVSITCSGSSSNVGYGNYVGWFQQVPGSAPKLLIYAATSRASGVPDRFSGSRSGNTATLTIDSLQAEDEADYYCSSYQRGNTGVFGSGTRLTVLG
# modifications: CA12 amino acid sequence
# B5: CA12 scAb (protein)
# scFv: B4 scFv
# modifications: left off: small tags and cut ends
# B6: CA4: anti-tau clone, SEQ ID NO: 368 (protein)
# chain: QVQLQESGPSLVKPSQTLSLTCTVSGFSLTSYSVYWVRQAPGQALEWISIMYASGRVDYNPALKSRLSITRDTSKSQFSLSLSSVTTEDTAVYYCTRGIENWGPGLLVTVSSEGKSSGASGESKVDDDIQVTQSPSSLSASLTERVSITCRTSQSVNNYLSWYQQKPGQAPKLLIYYATRLYTDVPSRFSGSGSGTDYTLTITSLEADDTATYYCLQYDSTPLAFGGGTNVEIK
# modifications: CA4 amino acid sequence
# Columns and labels:
# [1] = test system: alanine substituted 13mer tau peptides; test: Alanine scanning mutagenesis (ASM) peptide ELISA; type: binding, human; settings: numbering according to SEQ ID NO: 1; description text 'may be'
# Method: To further elucidate epitopes of the scAb panel, and identify the critical amino acids needed for binding, alanine scanning mutagenesis of the parent 13 aa peptides for scAbs CE2, S1D12, CA4 and S1G2 was performed. […] Briefly, 5 μg/ml streptavidin (Thermo Fisher) was adsorbed to Nunc 96-well MaxiSorp plates and following incubation at 37° C., for 1 h, the plates were washed as normal and blocked with 2% MPBS. N-terminally biotinylated peptides (Prolmmune Ltd) were added to the plates and incubated for 1 h at 37° C. Subsequently, test scAbs at starting concentrations of 100-500 nM was added and double diluted across the plate for each peptide and incubated for 1 h at 37° C. Rest of the ELISA was conducted as described above and the plates were read at absorbance 450 nm. Immunoreactivity of the scAb of interest was quantified as the % of scAb was bound for each peptide at a chosen concentration (FIG. 15-20).
# [2] = molecular target: dGA (Homo sapiens, UniProt P10636); test: Biacore X100 SPR, scAb captured via anti-HuCk, dGA as analyte; type: binding; settings: dissociation rate
# Method: (§1) Surface plasmon resonance (SPR) is widely regarded as the gold standard for real time measurement of protein-protein interactions such as antibody binding. All SPR experiments were carried out using a Biacore X100 machine and HBS EP+ running buffer (GE Healthcare). A ‘capture’ method was followed for affinity measurements, where an anti-human constant kappa chain (HuCk) antibody was conjugated to the surface of a CM5 sensor chip using an amine coupling kit and scAb molecules were immobilised via their HuCk domain. Amine coupling is a very common approach for immobilising the ligand to the chip surface. The chip surface has a dextran matrix derivatised with carboxyl groups, which after activation with N-hydroxysuccinimide (NHS) and 1-ethyl-3-(3-dimethylaminopropyl) carbodiimide (EDC), form reactive succinimide esters which allows the covalent capturing of the ligand via any available primary amine groups (e.g. Lysine) on the ligand (in this case anti-HuCk antibody). The capture antibody was diluted 1/100 in 10 mM Sodium acetate buffer pH 5.0 and passed over the activated chip surface for a period of at least 420 s. Final ligand immobilisation levels over 12,000 RU were deemed to be satisfactory.
# (§2) Following immobilisation, the level of each scAb to be captured was identified using the standard SPR equation with a theoretical RMax of 100 RU. Analyte MW refers to the molecular weight of hT40 or dGA/dGAE molecules, while ligand MW refers to the molecular weight of the scAbs tested. RL is the desired capture level and S refers to the stoichiometric ratio:
# (§3) The scAb to be tested was added only to flow cell 2 so that flow cell 1 could act as a control to subtract any interaction with the analyte and the chip surface. Both single and multi-cycle runs were utilised using wizards developed in the Biacore X100 control software which are both accepted methods of kinetic analysis (Karlsson, R., et al. Analyzing a kinetic titration series using affinity biosensors (2006) Analytical Biochemistry 349:136-47). The multi-cycle protocol was as follows-Three start-up cycles composed of an initial capture, to the desired level, of the scAb to be tested was performed followed by a 30 s injection of glycine buffer pH 2.0 after each cycle to regenerate the chip surface. The regeneration step removed any captured scAb whilst leaving the capture antibody intact and able to repeat the capture for the next cycle. Following three start-up cycles increasing concentrations (0.15625 nM-100 nM) of the target to be tested were added to the chip surface after the desired scAb capture. The target was added for a 120 s association period and 420 s dissociation period followed by another regeneration, 30 s injection of glycine buffer pH 2.0 in between each cycle.
# (§4) The single cycle kinetics protocol was similar and utilised the same level of scAb capture. Three start-up cycles were used followed by 5 increasing concentrations of the analyte (6.25 nM-100 nM) for an association period of 120 s followed by a dissociation period of 420 s for each concentration. In single cycle kinetics the regeneration step was performed only after the final analyte concentration was added. Binding responses were analysed in Biacore X100 evaluation software and data fitted to a 1:1 binding model to obtain kinetic and affinity characterisation.
# [3] = molecular target: hT40 (Homo sapiens, UniProt P10636); test: Biacore X100 SPR, scAb captured via anti-HuCk, hT40 as analyte; type: binding; settings: scAb, Table 23, T441 (hT40)
# Method: as §1, with “The chip surface has a dextran matrix derivatised with carboxyl groups, which after activation with N-hydroxysuccinimide (NHS) and 1-ethyl-3-(3-dimethylaminopropyl) carbodiimide (EDC), form reactive succinimide esters which allows the covalent capturing of the ligand via any available primary amine groups (e.g. Lysine) on the ligand (in this case anti-HuCk antibody).” left out
# as §2
# as §3, with “The regeneration step removed any captured scAb whilst leaving the capture antibody intact and able to repeat the capture for the next cycle.” left out
# as §4
# [4] = molecular target: dGAE aggregates (Homo sapiens, UniProt P10636); test: Sandwich ELISA on SDS/Triton X-100 treated dGAE aggregates; type: binding
# Method: For aggregation, 1000 μL 100 μM dGAE+10 μL 10 mM DTT was added to a ‘LoBind’ microfuge tubes and agitated at 700 RPM/37° C., for 24 hours. Resulting sample centrifuged at 17,000×g/4° C., for 60 min and supernatant discarded to remove left over monomer. Pellet resuspended in half the original volume for future experiments and hereafter referred to as ‘aggregates’. 1 μl of aggregates was added to 1 ml of PBS and SDS was added to a final concentration of 1% (w/v). This was left to incubate on lab bench for 1 h with gentle agitation every 15 minutes. In order to neutralise the SDS effect on ELISA, Triton X-100 added to a final concentration of 3% (v/v) and mixed gently by pipetting to prevent any bubble formation. […] Similarly aggregates treated with only SDS or Triton X-100, untreated aggregates, dGAE monomers treated with only SDS or SDS+Titon X-100 were also added to designated wells as controls. All samples were then double diluted across the plate in final volumes of 100 μl. The final column was left with no protein to act as a blank. This was allowed to stand at room temperature for 1 hour followed by the addition of detection scAb-S1G2 at 10 μg/ml. Anti-HuCk HRP labelled secondary antibody was added as described previously and ELISA data generated was represented using the graph below. In addition, limits of detection (LoD) of various core binding antibody pairing for SDS Triton X-100 treated dGAE aggregates were calculated using the above describe ELISA method and substituting capture mAbs and detection scAbs as shown in Table 30.
# [5] = molecular target: htau40 (Homo sapiens, UniProt P10636); test: Biacore X100 SPR of anti-tau mAbs on immobilised htau40; type: binding; settings: mAb, Table 27, immobilised hT40
# Method: For anti-tau mAb SPR measurements, htau40 was conjugated to the surface of a CM5 sensor chip using amine coupling as explained previously. Briefly, 2 μg/mL htau40 in 10 mM Sodium acetate buffer (pH 4.0) was passed over the activated chip surface (EDC/NHS) in flow cell 2 for a period for 45 s followed by blocking with 1 M ethanolamine-HCl PH 8.5. Flow cell 1 was set up as reference control and blocked simultaneously. Final immobilisation level of htau40 (Rmax) was approximately 250 RU. Following a minimum of three start-up cycles, increasing concentrations (0.78 nM-25 nM) of the mAb in HBS-EP+ buffer was added at a rate of 30 μL/min to the chip. The mAb was added for a 120 s association period and 600 s dissociation period followed by a regeneration cycle of 30 s injection of glycine buffer pH 1.5 in between each cycle. Binding responses were analysed in Biacore X100 evaluation software and data fitted to a 1:1 binding model to obtain kinetic and affinity characterisation.
# For anti-tau mAb SPR measurements (Biacore X100™) and epitope mapping, the same methodologies described above (see Example 16) were followed. Kinetic rates and equilibrium binding constants of additional anti-tau mAbs and the regions recognised on hT40 are given in the Table 25 below
# [6] = S1D12 mAb capture, +SDS Triton dGAE agg.
# [7] = direct immobilisation of dGAE aggregates, +SDS Triton
# Sequence of dGAE aggregates (P10636 614-708): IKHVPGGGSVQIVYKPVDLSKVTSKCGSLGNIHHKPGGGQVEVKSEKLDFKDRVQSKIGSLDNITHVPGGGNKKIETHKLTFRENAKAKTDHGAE
# Sequence of hT40 (P10636 1-441 isoform P10636-8): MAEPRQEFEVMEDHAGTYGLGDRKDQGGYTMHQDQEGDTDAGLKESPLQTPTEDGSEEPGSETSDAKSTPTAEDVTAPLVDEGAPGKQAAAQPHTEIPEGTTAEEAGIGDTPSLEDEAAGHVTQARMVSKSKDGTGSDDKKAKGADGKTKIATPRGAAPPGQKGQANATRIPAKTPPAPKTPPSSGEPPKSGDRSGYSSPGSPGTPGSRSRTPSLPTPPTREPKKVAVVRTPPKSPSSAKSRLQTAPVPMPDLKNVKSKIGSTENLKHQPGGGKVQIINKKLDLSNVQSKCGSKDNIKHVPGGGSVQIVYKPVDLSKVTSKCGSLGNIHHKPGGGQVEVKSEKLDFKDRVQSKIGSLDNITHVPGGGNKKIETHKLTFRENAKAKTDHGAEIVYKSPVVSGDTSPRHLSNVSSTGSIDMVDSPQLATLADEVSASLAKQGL
# Sequence of htau40 (P10636 1-441 isoform P10636-8): as above
# Sequence of dGA (P10636 614-707): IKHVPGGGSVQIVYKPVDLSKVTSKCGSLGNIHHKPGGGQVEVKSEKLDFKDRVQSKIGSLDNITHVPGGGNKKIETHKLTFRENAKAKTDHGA
Molecule,Critical residues of the epitope [1],ka [3] [M⁻¹ s⁻¹],kd [3] [s⁻¹],"LoD [4, 6] [ng/mL]","LoD [4, 7] [ng/mL]",other results
B1,"370 (K), and/or 374 (H)",–,–,–,–,–
B2,–,385000,0.000319,–,–,Kd [2]: 0.001627 s⁻¹
B3,–,–,–,4,40,–
B4,"370 (K), and/or 374 (H)",–,–,–,–,–
B5,–,–,–,2,16,–
B6,"358 (D), 360 (I), 361 (T), 362 (H) and/or 364 (P)",458100,0.001654,–,–,ka [5]: 1.02e+06 M⁻¹ s⁻¹; kd [5]: 0.001276 s⁻¹

# — US12624096B2, “Anti-tau antibodies and methods of use thereof” (GTInvent Limited, priority 2020, dated 2026)
